Experimental data published in the supplement of paper PMC9112550, “Optimization of the antimicrobial peptide Bac7 by deep mutational scanning” (BMC Biology, 2022).

Test system: Escherichia coli TOP10
Assay: shrunken log2 fold change of peptide-encoding DNA abundance (4.5 h post-induction vs induction); higher = less antimicrobial activity (less host growth inhibition)
Conditions: time post-induction: 4.5 h; library: site-saturation at positions 5, 18, 19, 20
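Further: peptides expressed intracellularly from a pBAD plasmid library in pooled LB shake-flask culture, induced with 0.3% L-arabinose, DNA abundance read by NGS, three biological replicates, DESeq2 with apeglm shrinkage.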

RRIRSRPPRLPRPRPRPHITPRP
shrunken log2 fold change: -0.734

RRIRSRPPRLPRPRPRPHIVPRP
shrunken log2 fold change: -0.243

RRIRSRPPRLPRPRPRPHLFPRP
shrunken log2 fold change: -0.32

RRIRSRPPRLPRPRPRPHLGPRP
shrunken log2 fold change: -0.385

RRIRSRPPRLPRPRPRPHMPPRP
shrunken log2 fold change: -0.401

RRIRSRPPRLPRPRPRPHMRPRP
shrunken log2 fold change: -0.0431

RRIRSRPPRLPRPRPRPHRCPRP
shrunken log2 fold change: -0.209

RRIRSRPPRLPRPRPRPHRRPRP
shrunken log2 fold change: 0.0441

RRIRSRPPRLPRPRPRPHRVPRP
shrunken log2 fold change: 0.0316

RRIRSRPPRLPRPRPRPHSAPRP
shrunken log2 fold change: -0.891

RRIRSRPPRLPRPRPRPHSPPRP
shrunken log2 fold change: 0.146

RRIRSRPPRLPRPRPRPHSVPRP
shrunken log2 fold change: -0.036

RRIRSRPPRLPRPRPRPHTFPRP
shrunken log2 fold change: -1.36

RRIRSRPPRLPRPRPRPHTVPRP
shrunken log2 fold change: -0.218

RRIRSRPPRLPRPRPRPHVRPRP
shrunken log2 fold change: 0.128

RRIRSRPPRLPRPRPRPHYQPRP
shrunken log2 fold change: -0.357

RRIRSRPPRLPRPRPRPIANPRP
shrunken log2 fold change: -0.0897

RRIRSRPPRLPRPRPRPICFPRP
shrunken log2 fold change: -0.15

RRIRSRPPRLPRPRPRPICNPRP
shrunken log2 fold change: -0.0128

RRIRSRPPRLPRPRPRPIDCPRP
shrunken log2 fold change: -1.27

RRIRSRPPRLPRPRPRPIDKPRP
shrunken log2 fold change: -0.156

RRIRSRPPRLPRPRPRPIEGPRP
shrunken log2 fold change: -0.0107

RRIRSRPPRLPRPRPRPIFQPRP
shrunken log2 fold change: -0.0307

RRIRSRPPRLPRPRPRPIGCPRP
shrunken log2 fold change: -0.144

RRIRSRPPRLPRPRPRPIGKPRP
shrunken log2 fold change: 0.0386

RRIRSRPPRLPRPRPRPIGYPRP
shrunken log2 fold change: 0.0746

RRIRSRPPRLPRPRPRPIHKPRP
shrunken log2 fold change: -0.165

RRIRSRPPRLPRPRPRPIKMPRP
shrunken log2 fold change: -0.47

RRIRSRPPRLPRPRPRPIKTPRP
shrunken log2 fold change: 0.000501

RRIRSRPPRLPRPRPRPILSPRP
shrunken log2 fold change: -0.329

RRIRSRPPRLPRPRPRPILVPRP
shrunken log2 fold change: 0.0112

RRIRSRPPRLPRPRPRPIMCPRP
shrunken log2 fold change: -0.572

RRIRSRPPRLPRPRPRPIMKPRP
shrunken log2 fold change: -0.292

RRIRSRPPRLPRPRPRPINIPRP
shrunken log2 fold change: -0.589

RRIRSRPPRLPRPRPRPIPTPRP
shrunken log2 fold change: 0.2

RRIRSRPPRLPRPRPRPIPYPRP
shrunken log2 fold change: -0.344

RRIRSRPPRLPRPRPRPIQGPRP
shrunken log2 fold change: -0.127

RRIRSRPPRLPRPRPRPIQIPRP
shrunken log2 fold change: -0.0243

RRIRSRPPRLPRPRPRPIRQPRP
shrunken log2 fold change: -0.0752

RRIRSRPPRLPRPRPRPISRPRP
shrunken log2 fold change: -0.416

RRIRSRPPRLPRPRPRPIVLPRP
shrunken log2 fold change: -0.639

RRIRSRPPRLPRPRPRPIYQPRP
shrunken log2 fold change: -0.158

RRIRSRPPRLPRPRPRPKAAPRP
shrunken log2 fold change: 0.252

RRIRSRPPRLPRPRPRPKCFPRP
shrunken log2 fold change: 0.318

RRIRSRPPRLPRPRPRPKCHPRP
shrunken log2 fold change: -0.31

RRIRSRPPRLPRPRPRPKERPRP
shrunken log2 fold change: 0.265

RRIRSRPPRLPRPRPRPKFVPRP
shrunken log2 fold change: -0.0276

RRIRSRPPRLPRPRPRPKGGPRP
shrunken log2 fold change: 0.149

RRIRSRPPRLPRPRPRPKGNPRP
shrunken log2 fold change: -0.144

RRIRSRPPRLPRPRPRPKGTPRP
shrunken log2 fold change: -0.237

RRIRSRPPRLPRPRPRPKHCPRP
shrunken log2 fold change: -0.00217

RRIRSRPPRLPRPRPRPKHKPRP
shrunken log2 fold change: -0.0831

RRIRSRPPRLPRPRPRPKHVPRP
shrunken log2 fold change: -0.183

RRIRSRPPRLPRPRPRPKIEPRP
shrunken log2 fold change: -0.0199

RRIRSRPPRLPRPRPRPKIYPRP
shrunken log2 fold change: -0.265

RRIRSRPPRLPRPRPRPKLVPRP
shrunken log2 fold change: -0.0443

RRIRSRPPRLPRPRPRPKRMPRP
shrunken log2 fold change: 0.00691

RRIRSRPPRLPRPRPRPKSIPRP
shrunken log2 fold change: -0.228

RRIRSRPPRLPRPRPRPKSQPRP
shrunken log2 fold change: 0.164

RRIRSRPPRLPRPRPRPKSYPRP
shrunken log2 fold change: -0.231

RRIRSRPPRLPRPRPRPKTEPRP
shrunken log2 fold change: -0.0689

RRIRSRPPRLPRPRPRPLCEPRP
shrunken log2 fold change: 0.0616

RRIRSRPPRLPRPRPRPLDVPRP
shrunken log2 fold change: -0.21

RRIRSRPPRLPRPRPRPLEFPRP
shrunken log2 fold change: -0.195

RRIRSRPPRLPRPRPRPLEGPRP
shrunken log2 fold change: -0.131

RRIRSRPPRLPRPRPRPLEQPRP
shrunken log2 fold change: 0.0284

RRIRSRPPRLPRPRPRPLETPRP
shrunken log2 fold change: -0.122

RRIRSRPPRLPRPRPRPLEVPRP
shrunken log2 fold change: -0.103

RRIRSRPPRLPRPRPRPLGPPRP
shrunken log2 fold change: 0.0761

RRIRSRPPRLPRPRPRPLHDPRP
shrunken log2 fold change: -0.0221

RRIRSRPPRLPRPRPRPLHQPRP
shrunken log2 fold change: -0.248

RRIRSRPPRLPRPRPRPLINPRP
shrunken log2 fold change: -0.0856

RRIRSRPPRLPRPRPRPLNGPRP
shrunken log2 fold change: -0.322

RRIRSRPPRLPRPRPRPLPKPRP
shrunken log2 fold change: 0.493

RRIRSRPPRLPRPRPRPLQCPRP
shrunken log2 fold change: 0.116

RRIRSRPPRLPRPRPRPLQEPRP
shrunken log2 fold change: 0.144

RRIRSRPPRLPRPRPRPLQGPRP
shrunken log2 fold change: -0.0686

RRIRSRPPRLPRPRPRPLQYPRP
shrunken log2 fold change: -0.221

RRIRSRPPRLPRPRPRPLRCPRP
shrunken log2 fold change: 0.435

RRIRSRPPRLPRPRPRPLRMPRP
shrunken log2 fold change: 0.0358

RRIRSRPPRLPRPRPRPLSKPRP
shrunken log2 fold change: -0.0737

RRIRSRPPRLPRPRPRPLTEPRP
shrunken log2 fold change: 0.21

RRIRSRPPRLPRPRPRPLVRPRP
shrunken log2 fold change: 0.0873

RRIRSRPPRLPRPRPRPLWWPRP
shrunken log2 fold change: 0.35

RRIRSRPPRLPRPRPRPLYAPRP
shrunken log2 fold change: -0.164

RRIRSRPPRLPRPRPRPLYKPRP
shrunken log2 fold change: -0.486

RRIRSRPPRLPRPRPRPMARPRP
shrunken log2 fold change: 0.101

RRIRSRPPRLPRPRPRPMCCPRP
shrunken log2 fold change: 0.109

RRIRSRPPRLPRPRPRPMCGPRP
shrunken log2 fold change: -0.145

RRIRSRPPRLPRPRPRPMCPPRP
shrunken log2 fold change: -0.0743

RRIRSRPPRLPRPRPRPMCYPRP
shrunken log2 fold change: -0.0971

RRIRSRPPRLPRPRPRPMDQPRP
shrunken log2 fold change: 0.362

RRIRSRPPRLPRPRPRPMGFPRP
shrunken log2 fold change: -0.0207

RRIRSRPPRLPRPRPRPMGMPRP
shrunken log2 fold change: -0.366

RRIRSRPPRLPRPRPRPMGWPRP
shrunken log2 fold change: 0.358

RRIRSRPPRLPRPRPRPMGYPRP
shrunken log2 fold change: -0.0075

RRIRSRPPRLPRPRPRPMHAPRP
shrunken log2 fold change: 0.562

RRIRSRPPRLPRPRPRPMHDPRP
shrunken log2 fold change: -0.314

RRIRSRPPRLPRPRPRPMHPPRP
shrunken log2 fold change: -0.0546

RRIRSRPPRLPRPRPRPMIKPRP
shrunken log2 fold change: -0.464

RRIRSRPPRLPRPRPRPMIWPRP
shrunken log2 fold change: 0.027

RRIRSRPPRLPRPRPRPMIYPRP
shrunken log2 fold change: -0.257

RRIRSRPPRLPRPRPRPMKFPRP
shrunken log2 fold change: -0.0589

RRIRSRPPRLPRPRPRPMKIPRP
shrunken log2 fold change: 0.108

RRIRSRPPRLPRPRPRPMLCPRP
shrunken log2 fold change: -0.121

RRIRSRPPRLPRPRPRPMLLPRP
shrunken log2 fold change: 3.53

RRIRSRPPRLPRPRPRPMLRPRP
shrunken log2 fold change: 0.123

RRIRSRPPRLPRPRPRPMMCPRP
shrunken log2 fold change: 0.0105

RRIRSRPPRLPRPRPRPMNCPRP
shrunken log2 fold change: -0.0191
